This note sets out measurements from patent US20250179196A1 (Janssen / Centocor, published 2025).

Test [1] concerns the target T1, rat IL-23R extracellular domain (ECD) protein (rat).
T1 construct: also called rat IL-23R ECD; F1LX96 amino acids 24-354
T1 chain: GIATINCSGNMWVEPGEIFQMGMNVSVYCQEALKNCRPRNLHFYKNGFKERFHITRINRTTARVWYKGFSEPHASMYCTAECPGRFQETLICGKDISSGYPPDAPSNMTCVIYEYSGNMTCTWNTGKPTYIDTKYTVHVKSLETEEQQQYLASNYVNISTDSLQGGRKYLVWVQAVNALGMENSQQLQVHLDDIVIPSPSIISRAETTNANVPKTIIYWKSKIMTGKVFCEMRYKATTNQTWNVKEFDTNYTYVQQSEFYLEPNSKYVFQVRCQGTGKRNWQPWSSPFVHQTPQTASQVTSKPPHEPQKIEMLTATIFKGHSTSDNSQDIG
Put plainly: SPR Biacore 8K, supernatant. The protocol: (§1) Affinity by SPR using Biacore 8K. Affinity measurements using Surface Plasmon Resonance (SPR) were performed using a Biacore 8K system (Cytiva). […] Approximately 9000-10000 RU (response units) of mAbs were immobilized. The kinetic experiments were performed at 25° C. in running buffer 1× of (HBS-P+ Buffer 10× (Cytiva #BR100671)+100 μg/ml BSA). To perform kinetic experiments, approximately 150 RU of mAbs were captured followed by injections of human IL-23R or rat IL-23R at concentrations ranging from 0.8 nM to 500 nM (in a 5-fold serial dilution). The association phase was monitored for 3 minutes at 50 μL/min, then followed by 30 minutes of buffer flow (dissociation phase). […] The collected data were processed using Biacore insight Evaluation software (Version 3.0.12.15655). The kinetic analysis of the data was performed using a Langmuir 1:1 binding model. The result for each mAb was reported in the format of Ka (On-rate), Kd (Off-rate) and KD (equilibrium dissociation constant).
(In general: Surface plasmon resonance follows binding to a sensor surface in real time, without labels.)

Test [2] concerns the target T2, Recombinant human IL-23 receptor (IL-23R) extracellular domain (ECD) protein (human, UniProt Q5VWK5 24-355).
T2 construct: also called human IL-23R ECD; hu IL-23R ECD
T2 sequence: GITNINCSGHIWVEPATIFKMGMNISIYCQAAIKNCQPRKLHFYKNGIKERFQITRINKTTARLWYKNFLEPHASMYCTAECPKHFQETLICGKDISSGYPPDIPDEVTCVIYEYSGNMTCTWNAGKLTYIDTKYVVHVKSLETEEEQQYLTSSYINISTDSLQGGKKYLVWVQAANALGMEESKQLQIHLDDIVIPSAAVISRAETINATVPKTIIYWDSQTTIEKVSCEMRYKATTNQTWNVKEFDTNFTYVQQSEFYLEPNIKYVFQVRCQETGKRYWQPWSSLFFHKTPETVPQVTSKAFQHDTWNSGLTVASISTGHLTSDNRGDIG
As to the kind of experiment: SPR Biacore 8K, supernatant, analysis 2. The protocol: as §1

Test [3] addresses T2, Recombinant human IL-23 receptor …. As to the kind of experiment: SPR Biacore 8K, supernatant, analysis 1. The method, then: as §1

B1: I23RB54 (antibody, mouse IgG2a, kappa, V domains shown)
VH: EVQLQQSGGGLVKPGGSLKLSCAASGFTFSSYAMSWVRQTPEKRLEWVAGISSGGSYIYYPDNVKGRFTISRDNARNTLYLQMSSLRSEDTAMYYCARKKSDYGAMDYWGQGTTLTVSS
VL: DIQMTQSPKFLLVSAGDRVTITCKASQSVSNDVAWYQQKPGQSPRLLIYYASNRYTGVPDRFTGSGYGTDFTFTISTVQAEDLAVYFCQQDYSSLPTFGAGTKLEMKR
notes: mouse immunization; mouse IgG2a/kappa
On to B1, for which the binding result in test [1] is recorded as “no binding (tested: 500 nM)”. For the same molecule, in test [2], the Kd was found to be 183 nM, the off-rate (koff) is 0.0979 s⁻¹ and the association rate constant (kon) came out at 534000 M⁻¹ s⁻¹.

B2: I23RB81 (antibody, mouse IgG2a, kappa, V domains shown)
VH: DVQLQESGPGLVAPSQSLSITCTVSGFSLTSYAINWVRQPPGKGLEWLGVIWTGGGTNYNSALKSRLSISKDNSKSQLFLKMNSLQTDDTARYYCARNRDYSNYRWYFDVWGAGTSVTVSS
VL: DIVMTQSHKFMSTSVGDRVSIICKASQDVSTAVAWYQQKPGQSPKLLIYSASYRYTGVPDRFTGSGSGTDFTFTISSVQAEDLAVYYCQQHYSTPLTFGAGTRLEIKR
notes: as for B1
With B2, the binding result in test [1] is on record as “no binding (tested: 500 nM)”. In test [2], the Kd turned out to be 8.89 nM, the dissociation rate constant (koff) stood at 0.00173 s⁻¹ and the kon is 195000 M⁻¹ s⁻¹.

B3: I23RB67 (antibody, mouse IgG2a, kappa, V domains shown)
VH: EVQLQQSGAELVKPGASVKLSCKASGYTFTSYWINWVKQRPGQGLEWIGNIYPGSSSTNYNEKFKSKATLTVDTSSSTAYMQLSSLTSDDSAVYYCARSAYGNRLAMDYWGQGTTLTVSS
VL: DVVMTQSHKFMSTSVGDRVSITCKASQDVSTAVAWYQQKPGQSPKLLIYSAFYRYTGVPDRFTGSGSGTDFTFTISSVQAEDLAVYYCQQHYSTPYTFGGGTKLELKR
notes: as for B1
As for B3, the binding result in test [1] is given as “no binding (tested: 500 nM)”. In test [2], the dissociation constant Kd is 25.4 nM, the koff turned out to be 0.0172 s⁻¹ and the kon is 677000 M⁻¹ s⁻¹.

B4: I23RB87 (antibody, mouse IgG2a, kappa, V domains shown)
VH: EFQLQQSGPELVKPGTSVKMSCKASGYTFTNYVMHWVKQKPGQGLEWIGYINPYDASPKYNEKFKGKAILTSDKSSSTAYMELSSLTSEDSAVYYCTRDAKLDYFDYWGQGTTLTVSS
VL: DIVMTQTTSSLSASLGDRVTISCRASQDISNYLNWYQQKPDGTVKLLIYYTSRLHSGVPSRFSGSGSGTDFSLTISNLEQEDIATYFCQQGITLPWTFGAGTKLELKR
notes: as for B1
As to B4, in test [1], the binding result is recorded as “no binding (tested: 500 nM)”. Besides, in test [2], the dissociation constant Kd is 10.9 nM, the dissociation rate constant (koff) was 0.000945 s⁻¹ and the kon worked out at 86500 M⁻¹ s⁻¹.

B5: I23RB102 (antibody, mouse IgG2a, kappa, V domains shown)
VH: QVQLQQPGAELVKPGASVKVSCKASGYTFTKYWINWMNQRPGQGLEWIGNIYPGSISTNYNEKFKSKVTLTVDISSSTAYMQLSSLTSDDSAVYYCARGDFYALDYWGQGTTLTVSS
VL: DIQMTQSPASLSVSVGETVTITCRASENIYSHITWYQLKQGKSPQLLVYASTNLADDVPSRFSGSGSGTQYSLKINSLLSEDFGTYYCQHFWGTPWTFGGGTKLEMKR
notes: as for B1
With B5, in test [1], the binding result is reported as “no binding (tested: 500 nM)”. In addition, in test [2], the Kd came out at 18.5 nM, the koff was found to be 0.00873 s⁻¹ and the association rate constant (kon) was 471000 M⁻¹ s⁻¹.

B6: I23RB74 (antibody, mouse IgG2a, kappa, V domains shown)
VH: DVQLQESGPGLVKPSQSLSLTCSVTGYSITSGYYWNWIRQFPGNKLEWMGYISYDGSFNYNPSLKNRLSITRDTSMNQFFLKLNSVTSEDTATYYCARAEIYYDYDGDFDYWGQGTTLTVSS
VL: DIVLTQSPASLAVSLGQRATISCRASKSVSTSGSNFLHWYQQKPGQPPKLLIYFASNLESGVPARFSGSGSGTDFTLNIHPVEEEDAATYYCQHSRELPHTFGAGTKLELKR
notes: as for B1
Regarding B6, the binding result in test [1] is reported as “no binding (tested: 500 nM)”. For the same molecule, in test [2], the Kd stood at 2.33 nM, the koff came to 0.00222 s⁻¹ and the kon amounted to 954000 M⁻¹ s⁻¹.

B7: I23RB269 (antibody, mouse IgG2a, kappa, V domains shown)
VH: QVQLVQSGAEVKKPGSSVKVSCKASGGTFSDASISWVRQAPGQGLEWMGTIIPISGNANYAQKFQGRVTITADESTSTAYMELSSLRSEDTAVYYCARDRYVWYYWDGYFDYWGQGTLVTVSS
VL: not shown
notes: phage display; human V regions, mouse IgG2a/kappa constant regions
As to B7, in test [1], the binding result was “no binding (tested: 500 nM)”. Moreover, in test [3], the equilibrium dissociation constant (Kd) turned out to be 1.09 nM, the koff turned out to be 0.000514 s⁻¹ and the association rate constant (kon) came out at 473000 M⁻¹ s⁻¹. Besides, in test [2], the equilibrium dissociation constant (Kd) is 1.41 nM, the off-rate (koff) came to 0.000542 s⁻¹ and the on-rate constant (kon) was determined as 385000 M⁻¹ s⁻¹.

B8: I23RB318 (antibody, mouse IgG2a, kappa, V domains shown)
VH: QVQLVQSGAEVKKPGSSVKVSCKASGGTFSSYAISWVRQAPGQGLEWMGGIIPIFGTANYAQKFQGRVTITADESTSTAYMELSSLRSEDTAVYYCARVRARHRGSFDYWGQGTLVTVSS
VL: DIQMTQSPSSLSASVGDRVTITCRASQSIDRWLNWYQQKPGKAPKLLIYYASSLQSGVPSRFSGSGSGTDFTLTISSLQPEDFATYYCQQSYSTPLTFGQGTKVEIKR
notes: as for B7
B8: in test [1], the binding result was “no binding (tested: 500 nM)”. In addition, in test [3], the dissociation constant (Kd) amounted to 21.3 nM, the off-rate (koff) came out at 0.00167 s⁻¹ and the kon is 78400 M⁻¹ s⁻¹. For the same molecule, in test [2], the Kd came out at 21.4 nM, the off-rate (koff) is 0.00156 s⁻¹ and the association rate constant (kon) was 72900 M⁻¹ s⁻¹.

B9: I23RB313 (antibody, mouse IgG2a, kappa, V domains shown)
VH: QVQLVQSGAEVKKPGSSVKVSCKASGGTFSSYGISWVRQAPGQGLEWMGWISAIFGTTNYAQKFQGRVTITADESTSTAYMELSSLRSEDTAVYYCARGTVPGFDYWGQGTLVTVSS
VL: DIQMTQSPSSLSASVGDRVTITCRASQSIGEDLNWYQQKPGKAPKLLIYAASSLQSGVPSRFSGSGSGTDFTLTISSLQPEDFATYYCQQSYSTPLTFGQGTKVEIKR
notes: as for B7
Consider B9, for which, in test [1], the binding result is “no binding (tested: 500 nM)”. Also, in test [3], the Kd was under 4.98 nM, the koff is under 2.89e-05 s⁻¹ and the kon was found to be 5800 M⁻¹ s⁻¹. Further, in test [2], the equilibrium dissociation constant (Kd) came to 4.85 nM, the koff is 0.000108 s⁻¹ and the on-rate constant (kon) came out at 22300 M⁻¹ s⁻¹.

B10: I23RB78 (antibody, mouse IgG2a, kappa, V domains shown)
VH: EFQLQQSGGGLVKPGGSLKLSCAASGFTFSNYTMSWVRQTPEKRLKWVACISSGGGNTYYPDSVKGRFTISRDNARNTLYLQMSSLRSEDTAMYYCARRNYRRAMDYWGQGTSVTVSS
VL: DIVMTQSPASLAVSLGQRATISCRASESVDSYGISFMHWYQQKPGQPPKLLIYRASNLESGIPARFSGSGSRTDFTLTINPVEADDVATYYCQQSNEDPWTFGAGTGLEIKR
notes: as for B1
B10: the binding result in test [1] was “no binding (tested: 500 nM)”. For the same molecule, in test [2], the dissociation constant (Kd) was 4.33 nM, the dissociation rate constant (koff) came to 0.000774 s⁻¹ and the on-rate constant (kon) turned out to be 179000 M⁻¹ s⁻¹.

B11: I23RB80 (antibody, mouse IgG2a, kappa, V domains shown)
VH: DVQLQESGPGLVQPSQSLSITCTVSGFSLTSYGVHWVRQSPGKGLEWLGVIWSGVSTDYNAAFISRLSISKDNSKSQVFFKMNSLQADDTAIYYCARSRGSYYFDYWGQGTTLTVSS
VL: DIVMTQSQKFMSTSEGDRVNITCKASQNIRTAVAWYQQKPGQSPKPLIYLASNRHTGVPDRFTGSGSGTDFTLTISNVQSEDLAEYFCLQHWNYPLTFGAGTKLELKR
notes: as for B1
In the case of B11, the binding result in test [1] is recorded as “no binding (tested: 500 nM)”.

B12: I23RB270 (antibody, mouse IgG2a, kappa, V domains shown)
VH: QVQLVQSGAEVKKPGSSVKVSCKASGGTFDSYAISWVRQAPGQGLEWMGGIIPISGYANYAQKFQGRVTITADESTSTAYMELSSLRSEDTAVYYCARDLSGGYLGLRTLYYYYFDYWGQGTLVTVSS
VL: EIVLTQSPATLSLSPGERATLSCRASQSVSSYLAWYQQKPGQAPRLLIYDASNRATGIPARFSGSGSGTDFTLTISSLEPEDFAVYYCQQRSNWPLTFGQGTKVEIKR
notes: as for B7
Consider B12, for which, in test [1], the binding result is “no binding (tested: 500 nM)”. In test [3], the Kd was 1.91 nM, the koff is 0.00102 s⁻¹ and the kon came to 535000 M⁻¹ s⁻¹. In test [2], the equilibrium dissociation constant (Kd) is 2.46 nM, the dissociation rate constant (koff) amounted to 0.00101 s⁻¹ and the association rate constant (kon) stood at 409000 M⁻¹ s⁻¹.

Broadly, the Kd is the constant that tells how readily two partners part at equilibrium. As usually defined, the koff is the first-order rate constant of dissociation. Usually kon stands for a measure of how fast the partners come together.
